Data as given in US20180171001A1.
Where a chain is given by its changes, count along the chain named.

B1: 8ANC3044 (antibody, V domains shown)
VH: QIHLVQSGTEVRKPGSSVTVSCKAYGVNTFGLYAVNWVRQAPGQSLEYIGQIWRWKSSASHHFRGRVLISAVDLTGSSPPISSLEIKNLTSDDTAVYFCTTTSTYDKWSGLHHDGVMAFSSWGQGTLISVSA
VL: DIQMTQSPSTLSASIGDTVRISCRASQSITGNWVAWYQQRPGKAPRLLIYRGAALLGGVPSRFSGSAAGTDFTLTIGNLQTEDFGTFYCQQYDTYPGTFGQGTKVEVKR
B2: γ20κ3 (antibody, V domains shown)
VH: B1 VH with R12K, T19A, H62D, L68I, T101A, Y105P, K107Y
VL: B1 VL with V34L, Q38H, A53S, A54R, G77A, T81A
B3: 8ANC3430 (antibody, V domains shown)
VH: B1 VH with R12K, L68I, Y105S, K107Y
VL: B1 VL with I15V, N32G, V34L, Q38H, A53S, A54R, G77A, T81A
B4: γ15κ18 (antibody, V domains shown)
VH: B1 VH with R12K, L68I, T102A
VL: B1 VL with I15V, N32G, V34L, Q38H, A53S, A54R, T70A, G77A, T81A
B5: γ59κ3 (antibody, V domains shown)
VH: B1 VH with R12K, S45G, L89V, K107E, G110D
VL: B1 VL with V34L, Q38H, A53S, A54R, G77A, T81A
B6: 8ANC3630 (antibody, V domains shown)
VH: B1 VH with R12K, K107R
VL: B1 VL with N32G, V34L, Q38H, A53S, A54R, G77A, T81A

target: Env of HIV-1 strain 3365.v2.c20 (HIV-1); experiment: cell-based or functional assay

Row | Binder | neutralization IC50 [µg/mL]
1 | B1 | > 30
2 | B2 | > 15
3 | B3 | > 23
4 | B4 | > 15
5 | B5 | > 15
6 | B6 | > 30

target: Env of HIV-1 strain 250-4 (HIV-1); experiment: cell-based or functional assay

Row | Binder | neutralization IC50 [µg/mL]
7 | B1 | > 30
8 | B2 | > 15
9 | B3 | > 23
10 | B4 | > 15
11 | B5 | > 15
12 | B6 | > 30

target: Env of HIV-1 strain H086.8 (HIV-1); experiment: cell-based or functional assay

Row | Binder | neutralization IC50 [µg/mL]
13 | B1 | 3.83
14 | B2 | > 15
15 | B3 | > 23
16 | B4 | > 15
17 | B5 | > 15
18 | B6 | 0.3

target: Env of HIV-1 strain YU2.DG (HIV-1); experiment: cell-based or functional assay

Row | Binder | neutralization IC50 [µg/mL]
19 | B1 | 0.747
20 | B2 | > 15
21 | B3 | 0.545
22 | B4 | 1.17
23 | B5 | 8.97
24 | B6 | 0.468

target: Env of HIV-1 strain ZM109F.PB4 (HIV-1); experiment: cell-based or functional assay

Row | Binder | neutralization IC50 [µg/mL]
25 | B1 | > 30
26 | B2 | > 15
27 | B3 | > 23
28 | B4 | > 15
29 | B5 | > 15
30 | B6 | > 30

target: Env of HIV-1 strain Du172.17 (HIV-1); experiment: cell-based or functional assay

Row | Binder | neutralization IC50 [µg/mL]
31 | B1 | > 30
32 | B2 | > 15
33 | B3 | > 23
34 | B4 | > 15
35 | B5 | > 15
36 | B6 | > 30

target: Env of HIV-1 strain PVO.4 (HIV-1); experiment: cell-based or functional assay

Row | Binder | neutralization IC50 [µg/mL]
37 | B1 | 0.26
38 | B2 | > 15
39 | B3 | 0.206
40 | B4 | 1.59
41 | B5 | > 15
42 | B6 | 0.102

target: Env of HIV-1 strain R1166.c1 (HIV-1); experiment: cell-based or functional assay

Row | Binder | neutralization IC50 [µg/mL]
43 | B1 | 2.38
44 | B2 | > 15
45 | B3 | 3.64
46 | B4 | 1.99
47 | B5 | 24.2
48 | B6 | 1.45

target: Env of HIV-1 strain 231965.c1 (HIV-1); experiment: cell-based or functional assay

Row | Binder | neutralization IC50 [µg/mL]
49 | B1 | 1.33
50 | B2 | > 15
51 | B3 | 1.19
52 | B4 | 1.49
53 | B5 | > 15
54 | B6 | 0.375

target: Env of HIV-1 strain ZM53M.PB12 (HIV-1); experiment: cell-based or functional assay

Row | Binder | neutralization IC50 [µg/mL]
55 | B1 | 15.2
56 | B2 | > 15
57 | B3 | > 23
58 | B4 | > 15
59 | B5 | > 15
60 | B6 | > 30

target: Env of HIV-1 strain 3016.v5.c45 (HIV-1); experiment: cell-based or functional assay

Row | Binder | neutralization IC50 [µg/mL]
61 | B1 | 0.242
62 | B2 | > 15
63 | B3 | 0.271
64 | B4 | 0.664
65 | B5 | > 15
66 | B6 | 0.136

target: Env of HIV-1 strain X1254_c3 (HIV-1); experiment: cell-based or functional assay

Row | Binder | neutralization IC50 [µg/mL]
67 | B1 | 4.54
68 | B2 | 14.7
69 | B3 | 4.28
70 | B4 | 2.85
71 | B5 | 3.39
72 | B6 | 2.38

target: Env of HIV-1 strain 3415.v1.c1 (HIV-1); experiment: cell-based or functional assay

Row | Binder | neutralization IC50 [µg/mL]
73 | B1 | 7.56
74 | B2 | > 15
75 | B3 | > 23
76 | B4 | > 15
77 | B5 | > 15
78 | B6 | 28

target: Env of HIV-1 strain 251-18 (HIV-1); experiment: cell-based or functional assay

Row | Binder | neutralization IC50 [µg/mL]
79 | B1 | 0.858
80 | B2 | > 15
81 | B3 | 6.17
82 | B4 | > 15
83 | B5 | > 15
84 | B6 | 0.73

target: Env of MuLV; experiment: cell-based or functional assay

Row | Binder | neutralization IC50 [µg/mL]
85 | B1 | > 30
86 | B2 | > 21
87 | B3 | > 23
88 | B5 | > 30
89 | B6 | > 30

target: Env of HIV-1 strain REJO4541.67 (HIV-1); experiment: cell-based or functional assay

Row | Binder | neutralization IC50 [µg/mL]
90 | B1 | 0.278
91 | B2 | > 15
92 | B3 | 0.198
93 | B4 | > 15
94 | B5 | 8.54
95 | B6 | 2.65
